Several values for one entry are separate records, joined by “and”; a condition that tells them apart may be missing. Equal entries are not always repeated. Marks after values point to notes of the source that are not given here.
T1: full-length TgCBS (Toxoplasma gondii, UniProt A0A125YSJ9)
T1 construct: gene TGME49_259180; full-length, residues 1-514; N-terminal 6xHis tag; E. coli Rosetta (DE3); ~57 kDa subunit; mainly dimer
T1 sequence (A0A125YSJ9 1-514): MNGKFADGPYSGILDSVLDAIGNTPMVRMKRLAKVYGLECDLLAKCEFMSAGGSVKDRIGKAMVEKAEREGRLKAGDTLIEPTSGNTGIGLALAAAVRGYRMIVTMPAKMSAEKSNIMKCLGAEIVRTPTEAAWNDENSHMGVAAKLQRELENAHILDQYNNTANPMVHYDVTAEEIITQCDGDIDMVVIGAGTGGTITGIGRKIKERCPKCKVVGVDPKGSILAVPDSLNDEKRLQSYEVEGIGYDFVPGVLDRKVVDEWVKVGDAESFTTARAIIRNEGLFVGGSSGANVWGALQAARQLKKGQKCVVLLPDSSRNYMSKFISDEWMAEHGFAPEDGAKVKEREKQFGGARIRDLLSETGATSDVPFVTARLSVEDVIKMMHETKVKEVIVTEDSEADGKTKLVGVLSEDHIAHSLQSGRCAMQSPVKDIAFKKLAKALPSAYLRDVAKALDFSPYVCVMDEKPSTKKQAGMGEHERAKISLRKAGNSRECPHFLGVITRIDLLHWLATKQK


Tests used:
full-length TgCBS = target: T1, full-length TgCBS; test: continuous CBL-LDH coupled assay; format: biochemical; conditions: saturating L-Ser and L-Hcys; pH 9, 37 °C; activity after heat pre-treatment or trypsinolysis
TgCBS R353* = target: T2, TgCBS R353* (Toxoplasma gondii, UniProt A0A125YSJ9); test: UV-Vis absorption ([…] nm internal aldimine); PLP content by NaOH, […] nm; format: binding; conditions: stoichiometry; covalent internal aldimine, as purified
T2 construct: gene TGME49_259180; C-terminally truncated (stop codon at R353; residues 353-514, Bateman module, removed), residues 1-352; N-terminal 6xHis tag; pET21a, E. coli Rosetta (DE3); 39 kDa; mainly dimer

[1] = target: Proteolysed full-length TgCBS (39 kDa trypsin-resistant core) (Toxoplasma gondii); test: SEC; 250 ug TgCBS incubated with trypsin 1:200 (w/w) for 120 min, stopped with a two-fold weight excess of soybean trypsin inhibitor, loaded on Superdex 200 10/300 GL; TgCBS R353* at 0.5 mg/mL run for comparison
[2] = target: the molecule itself; test: SEC; Superdex 200 10/300 GL, protein at 1 mg/mL, 20 mM sodium phosphate buffer pH 8.5, 150 mM NaCl, 0.1 mM DTT; calibrated with standard proteins
[3] = target: the molecule itself; test: native gel or EMSA; native PAGE at 8, 9, 10 and 12% polyacrylamide, 10 ug/lane, Coomassie staining, Ferguson plot analysis with molecular mass standards

| Molecule | continuous CBL-LDH coupled assay (full-length TgCBS) | stoichiometry N [2] | also measured |
| --- | --- | --- | --- |
| N[C@@H](CCS)C(=O)O [L-Hcys] | at saturating concentration of L-Ser and L-Hcys in the canonical reaction | – | – |
| N[C@@H](CO)C(=O)O [L-Ser] | full-length TgCBS (solid triangles) and TgCBS R353* (open circles) on their steady-state initial velocity | – | – |
| Cc1ncc(COP(=O)(O)O)c(C=O)c1O [PLP] | – | – | PLP per monomer (TgCBS R353*): 0.9 ± 0.1 mol/mol |
| Proteolysed full-length TgCBS (39 kDa trypsin-resistant core) (from UniProt A0A125YSJ9 1-514) (domain or fragment) | – | – | stoichiometry N [1]: 2 |
| Full-length cystathionine beta-synthase from Toxoplasma gondii (enzyme, UniProt A0A125YSJ9 1-514, looked up, the cited crystal structure PDB 6XWL is of a construct lacking an internal loop (TgCBS Δ466-491); PLP-dependent enzyme; also called TgCBS; full-length TgCBS; source: E. coli Rosetta (DE3), purified (Ni-sepharose); not shown: His6, N-terminal, kept) MNGKFADGPYSGILDSVLDAIGNTPMVRMKRLAKVYGLECDLLAKCEFMSAGGSVKDRIGKAMVEKAEREGRLKAGDTLIEPTSGNTGIGLALAAAVRGYRMIVTMPAKMSAEKSNIMKCLGAEIVRTPTEAAWNDENSHMGVAAKLQRELENAHILDQYNNTANPMVHYDVTAEEIITQCDGDIDMVVIGAGTGGTITGIGRKIKERCPKCKVVGVDPKGSILAVPDSLNDEKRLQSYEVEGIGYDFVPGVLDRKVVDEWVKVGDAESFTTARAIIRNEGLFVGGSSGANVWGALQAARQLKKGQKCVVLLPDSSRNYMSKFISDEWMAEHGFAPEDGAKVKEREKQFGGARIRDLLSETGATSDVPFVTARLSVEDVIKMMHETKVKEVIVTEDSEADGKTKLVGVLSEDHIAHSLQSGRCAMQSPVKDIAFKKLAKALPSAYLRDVAKALDFSPYVCVMDEKPSTKKQAGMGEHERAKISLRKAGNSRECPHFLGVITRIDLLHWLATKQK | – | 2 and 4 | – |
| TgCBS R353* (TgCBS lacking the C-terminal Bateman module) (domain or fragment, Toxoplasma gondii, UniProt A0A125YSJ9 1-352, looked up, Cystathionine beta-synthase (TgCBS), Toxoplasma gondii, residues 1-352 (catalytic domain and interdomain linker); 39 kDa subunit; made by site-directed mutagenesis on pET21a-TgCBS; also called C-terminally truncated TgCBS; truncated TgCBS; source: E. coli Rosetta (DE3), purified (Ni-sepharose, as the wild-type enzyme); not shown: His6, N-terminal, kept) MNGKFADGPYSGILDSVLDAIGNTPMVRMKRLAKVYGLECDLLAKCEFMSAGGSVKDRIGKAMVEKAEREGRLKAGDTLIEPTSGNTGIGLALAAAVRGYRMIVTMPAKMSAEKSNIMKCLGAEIVRTPTEAAWNDENSHMGVAAKLQRELENAHILDQYNNTANPMVHYDVTAEEIITQCDGDIDMVVIGAGTGGTITGIGRKIKERCPKCKVVGVDPKGSILAVPDSLNDEKRLQSYEVEGIGYDFVPGVLDRKVVDEWVKVGDAESFTTARAIIRNEGLFVGGSSGANVWGALQAARQLKKGQKCVVLLPDSSRNYMSKFISDEWMAEHGFAPEDGAKVKEREKQFGGA | – | 2 and 4 | stoichiometry N [3]: ~4 and ~2 |
